Measurements published in IntAct's records for PubMed 19478065.

B1: Type 3 secretion system translocon protein SctE (Shigella flexneri), P18011 (parent)
chain: MHNVSTTTTGFPLAKILTSTELGDNTIQAANDAANKLFSLTIADLTANQNINTTNAHSTSNILIPELKAPKSLNASSQLTLLIGNLIQILGEKSLTALTNKITAWKSQQQARQQKNLEFSDKINTLLSETEGLTRDYEKQINKLKNADSKIKDLENKINQIQTRLSELDPESPEKKKLSREEIQLTIKKDAAVKDRTLIEQKTLSIHSKLTDKSMQLEKEIDSFSAFSNTASAEQLSTQQKSLTGLASVTQLMATFIQLVGKNNEESLKNDLALFQSLQESRKTEMERKSDEYAAEVRKAEELNRVMGCVGKILGALLTIVSVVAAAFSGGASLALAAVGLALMVTDAIVQAATGNSFMEQALNPIMKAVIEPLIKLLSDAFTKMLEGLGVDSKKAKMIGSILGAIAGALVLVAAVVLVATVGKQAAAKLAENIGKIIGKTLTDLIPKFLKNFSSQLDDLITNAVARLNKFLGAAGDEVISKQIISTHLNQAVLLGESVNSATQAGGSVASAVFQNSASTNLADLTLSKYQVEQLSKYISEAIEKFGQLQEVIADLLASMSNSQANRTDVAKAILQQTTA
B2: Chaperone protein IpgC (Shigella flexneri), P0A2U4 (parent)
chain: MSLNITENESISTAVIDAINSGATLKDINAIPDDMMDDIYSYAYDFYNKGRIEEAEVFFRFLCIYDFYNVDYIMGLAAIYQIKEQFQQAADLYAVAFALGKNDYTPVFHTGQCQLRLKAPLKAKECFELVIQHSNDEKLKIKAQSYLDAIQDIKE
partner: B1 chain

Variants of: B1
Conditions: with ipgc_shifl ipgC

Row | Variant | effect of a mutation on the interaction
1 | MHNVSTTTTGFPLAKILTSTELGDNTIQAANDAANKLFSLTIADLTANQNINTTNAHSTSNILIPELAAPKSLNASSQLTLLIGNLIQILGEKSLTALTNKITAWKSQQQARQQKNLEFSDKINTLLSETEGLTRDYEKQINKLKNADSKIKDLENKINQIQTRLSELDPESPEKKKLSREEIQLTIKKDAAVKDRTLIEQKTLSIHSKLTDKSMQLEKEIDSFSAFSNTASAEQLSTQQKSLTGLASVTQLMATFIQLVGKNNEESLKNDLALFQSLQESRKTEMERKSDEYAAEVRKAEELNRVMGCVGKILGALLTIVSVVAAAFSGGASLALAAVGLALMVTDAIVQAATGNSFMEQALNPIMKAVIEPLIKLLSDAFTKMLEGLGVDSKKAKMIGSILGAIAGALVLVAAVVLVATVGKQAAAKLAENIGKIIGKTLTDLIPKFLKNFSSQLDDLITNAVARLNKFLGAAGDEVISKQIISTHLNQAVLLGESVNSATQAGGSVASAVFQNSASTNLADLTLSKYQVEQLSKYISEAIEKFGQLQEVIADLLASMSNSQANRTDVAKAILQQTTA [K68A] | decreasing interaction strength
2 | MHNVSTTTTGFPLAKILTSTELGDNTIQAANDAANKLFSLTIADLTANQNINTTNAHSTSNILIRELKAPKSLNASSQLTLLIGNLIQILGEKSLTALTNKITAWKSQQQARQQKNLEFSDKINTLLSETEGLTRDYEKQINKLKNADSKIKDLENKINQIQTRLSELDPESPEKKKLSREEIQLTIKKDAAVKDRTLIEQKTLSIHSKLTDKSMQLEKEIDSFSAFSNTASAEQLSTQQKSLTGLASVTQLMATFIQLVGKNNEESLKNDLALFQSLQESRKTEMERKSDEYAAEVRKAEELNRVMGCVGKILGALLTIVSVVAAAFSGGASLALAAVGLALMVTDAIVQAATGNSFMEQALNPIMKAVIEPLIKLLSDAFTKMLEGLGVDSKKAKMIGSILGAIAGALVLVAAVVLVATVGKQAAAKLAENIGKIIGKTLTDLIPKFLKNFSSQLDDLITNAVARLNKFLGAAGDEVISKQIISTHLNQAVLLGESVNSATQAGGSVASAVFQNSASTNLADLTLSKYQVEQLSKYISEAIEKFGQLQEVIADLLASMSNSQANRTDVAKAILQQTTA [P65R] | disrupting interaction strength
3 | MHNVSTTTTGFPLAKILTSTELGDNTIQAANDAANKLFSLTIADLTANQNINTTNAHSTSNILIPELKADKSLNASSQLTLLIGNLIQILGEKSLTALTNKITAWKSQQQARQQKNLEFSDKINTLLSETEGLTRDYEKQINKLKNADSKIKDLENKINQIQTRLSELDPESPEKKKLSREEIQLTIKKDAAVKDRTLIEQKTLSIHSKLTDKSMQLEKEIDSFSAFSNTASAEQLSTQQKSLTGLASVTQLMATFIQLVGKNNEESLKNDLALFQSLQESRKTEMERKSDEYAAEVRKAEELNRVMGCVGKILGALLTIVSVVAAAFSGGASLALAAVGLALMVTDAIVQAATGNSFMEQALNPIMKAVIEPLIKLLSDAFTKMLEGLGVDSKKAKMIGSILGAIAGALVLVAAVVLVATVGKQAAAKLAENIGKIIGKTLTDLIPKFLKNFSSQLDDLITNAVARLNKFLGAAGDEVISKQIISTHLNQAVLLGESVNSATQAGGSVASAVFQNSASTNLADLTLSKYQVEQLSKYISEAIEKFGQLQEVIADLLASMSNSQANRTDVAKAILQQTTA [P70D] | disrupting interaction strength
4 | MHNVSTTTTGFPLAKILTSTELGDNTIQAANDAANKLFSLTIADLTANQNINTTNAHSTSNILIPENKAPKSLNASSQLTLLIGNLIQILGEKSLTALTNKITAWKSQQQARQQKNLEFSDKINTLLSETEGLTRDYEKQINKLKNADSKIKDLENKINQIQTRLSELDPESPEKKKLSREEIQLTIKKDAAVKDRTLIEQKTLSIHSKLTDKSMQLEKEIDSFSAFSNTASAEQLSTQQKSLTGLASVTQLMATFIQLVGKNNEESLKNDLALFQSLQESRKTEMERKSDEYAAEVRKAEELNRVMGCVGKILGALLTIVSVVAAAFSGGASLALAAVGLALMVTDAIVQAATGNSFMEQALNPIMKAVIEPLIKLLSDAFTKMLEGLGVDSKKAKMIGSILGAIAGALVLVAAVVLVATVGKQAAAKLAENIGKIIGKTLTDLIPKFLKNFSSQLDDLITNAVARLNKFLGAAGDEVISKQIISTHLNQAVLLGESVNSATQAGGSVASAVFQNSASTNLADLTLSKYQVEQLSKYISEAIEKFGQLQEVIADLLASMSNSQANRTDVAKAILQQTTA [L67N] | disrupting interaction strength

Variants of: B2
Conditions: with scte_shifl sctE

Row | Variant | effect of a mutation on the interaction
5 | S41M;Y44G;G75Q;A78M | disrupting interaction strength
